This sample holds only a part of the variants without activity.
What was measured:
biotinyl-Met-oxazolone = assay: self-aminoacylation, catalytic enhancement (BMO) (fold over background); higher = more active; k-Seq, kA / k0A0; sequences stand for … in GGGAAUGGAUCCACAUCUACGAAUUC…UUCACUGCAGACUUGACGAAGCUG
Outline: (§1)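 Mutagenized RNA pools with a 21-nt variable region (0.43 μM) reacted with each biotinyl-aminoacyl-oxazolone at 2–1250 μM. Reactions ran in 50 μL HEPES/NaCl/KCl/MgCl2/CaCl2 buffer with 5% acetonitrile, pH 6.9–7.0, for 90 minutes at room temperature. Streptavidin-captured RNA was quantified by triplicate qPCR and Illumina sequencing, and per-sequence fraction reacted was fit to a pseudo-first-order model with 1000 bootstraps. Catalytic enhancement is median kA divided by the uncatalyzed rate, the low-activity peak of a bimodal Gaussian fit.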

biotinyl-Leu-oxazolone = assay: self-aminoacylation, catalytic enhancement (BLO) (fold over background); higher = more active; k-Seq, kA / k0A0; sequences stand for … in GGGAAUGGAUCCACAUCUACGAAUUC…UUCACUGCAGACUUGACGAAGCUG
Outline: as §1

biotinyl-Val-oxazolone = assay: self-aminoacylation, catalytic enhancement (BVO) (fold over background); higher = more active; k-Seq, kA / k0A0; sequences stand for … in GGGAAUGGAUCCACAUCUACGAAUUC…UUCACUGCAGACUUGACGAAGCUG
Outline: as §1

biotinyl-Phe-oxazolone = assay: self-aminoacylation, catalytic enhancement (BFO) (fold over background); higher = more active; k-Seq, kA / k0A0; sequences stand for … in GGGAAUGGAUCCACAUCUACGAAUUC…UUCACUGCAGACUUGACGAAGCUG
Outline: as §1

biotinyl-Ile-oxazolone = assay: self-aminoacylation, catalytic enhancement (BIO) (fold over background); higher = more active; k-Seq, kA / k0A0; sequences stand for … in GGGAAUGGAUCCACAUCUACGAAUUC…UUCACUGCAGACUUGACGAAGCUG
Outline: as §1

biotinyl-Trp-oxazolone = assay: self-aminoacylation, catalytic enhancement (BWO) (fold over background); higher = more active; k-Seq, kA / k0A0; sequences stand for … in GGGAAUGGAUCCACAUCUACGAAUUC…UUCACUGCAGACUUGACGAAGCUG
Outline: as §1

AAUCACCUAGGUCAUCGAGUG [Fam2.2 aminoacylation ribozyme variant]
self-aminoacylation (biotinyl-Met-oxazolone): 3.92 | self-aminoacylation (biotinyl-Leu-oxazolone): 4.65 | self-aminoacylation (biotinyl-Val-oxazolone): 2.86 | self-aminoacylation (biotinyl-Phe-oxazolone): 7.56 | self-aminoacylation (biotinyl-Ile-oxazolone): 3.52 | self-aminoacylation (biotinyl-Trp-oxazolone): 3.26

AAUCACCUAGGUCAUCGCGUG [Fam2.2 aminoacylation ribozyme variant]
self-aminoacylation (biotinyl-Met-oxazolone): 11.3 | self-aminoacylation (biotinyl-Leu-oxazolone): 12.1 | self-aminoacylation (biotinyl-Val-oxazolone): 7.32 | self-aminoacylation (biotinyl-Phe-oxazolone): 70.6 | self-aminoacylation (biotinyl-Ile-oxazolone): 6.41 | self-aminoacylation (biotinyl-Trp-oxazolone): 10.4

AAUCACCUAGGUCAUCGGGCG [Fam2.2 aminoacylation ribozyme variant]
self-aminoacylation (biotinyl-Met-oxazolone): 4.05 | self-aminoacylation (biotinyl-Leu-oxazolone): 4.1 | self-aminoacylation (biotinyl-Val-oxazolone): 2.77 | self-aminoacylation (biotinyl-Phe-oxazolone): 7.85 | self-aminoacylation (biotinyl-Ile-oxazolone): 3.35 | self-aminoacylation (biotinyl-Trp-oxazolone): 3.94

AAUCACCUAGGUCAUUGGGUG [Fam2.2 aminoacylation ribozyme variant]
self-aminoacylation (biotinyl-Met-oxazolone): 2.74 | self-aminoacylation (biotinyl-Leu-oxazolone): 3.6 | self-aminoacylation (biotinyl-Val-oxazolone): 2.65 | self-aminoacylation (biotinyl-Phe-oxazolone): 13.1 | self-aminoacylation (biotinyl-Ile-oxazolone): 2.94 | self-aminoacylation (biotinyl-Trp-oxazolone): 4.15

AAUCACCUAGGUCCUCGGGUG [Fam2.2 aminoacylation ribozyme variant]
self-aminoacylation (biotinyl-Met-oxazolone): 3.73 | self-aminoacylation (biotinyl-Leu-oxazolone): 5.07 | self-aminoacylation (biotinyl-Val-oxazolone): 3.29 | self-aminoacylation (biotinyl-Phe-oxazolone): 19.7 | self-aminoacylation (biotinyl-Ile-oxazolone): 3.74 | self-aminoacylation (biotinyl-Trp-oxazolone): 5.34

AAUCCCCUAGGUCAUCGGGUG [Fam2.2 aminoacylation ribozyme variant]
self-aminoacylation (biotinyl-Met-oxazolone): 13.5 | self-aminoacylation (biotinyl-Leu-oxazolone): 16.3 | self-aminoacylation (biotinyl-Val-oxazolone): 8.17 | self-aminoacylation (biotinyl-Phe-oxazolone): 104 | self-aminoacylation (biotinyl-Ile-oxazolone): 7.49 | self-aminoacylation (biotinyl-Trp-oxazolone): 11.8

AAUUCCCUGGUCAUCGAGUGA [Fam2.1 aminoacylation ribozyme variant]
self-aminoacylation (biotinyl-Met-oxazolone): 10.1 | self-aminoacylation (biotinyl-Leu-oxazolone): 10.8 | self-aminoacylation (biotinyl-Val-oxazolone): 6.09 | self-aminoacylation (biotinyl-Phe-oxazolone): 41.5 | self-aminoacylation (biotinyl-Ile-oxazolone): 5.6 | self-aminoacylation (biotinyl-Trp-oxazolone): 13

AAUUCUGCUAAUAGUCGCAAG [Fam3.1 aminoacylation ribozyme variant]
self-aminoacylation (biotinyl-Met-oxazolone): 1.81 | self-aminoacylation (biotinyl-Leu-oxazolone): 1.61 | self-aminoacylation (biotinyl-Val-oxazolone): 1.56 | self-aminoacylation (biotinyl-Phe-oxazolone): 12.7 | self-aminoacylation (biotinyl-Ile-oxazolone): 1.88 | self-aminoacylation (biotinyl-Trp-oxazolone): 4.46

AAUUUUGAUAAUAGUCGCAAG [Fam3.1 aminoacylation ribozyme variant]
self-aminoacylation (biotinyl-Met-oxazolone): 1.66 | self-aminoacylation (biotinyl-Leu-oxazolone): 1.64 | self-aminoacylation (biotinyl-Val-oxazolone): 1.39 | self-aminoacylation (biotinyl-Phe-oxazolone): 2.09 | self-aminoacylation (biotinyl-Ile-oxazolone): 1.7 | self-aminoacylation (biotinyl-Trp-oxazolone): 1.37

AAUUUUGCUAAUAGGCGCAAG [Fam3.1 aminoacylation ribozyme variant]
self-aminoacylation (biotinyl-Met-oxazolone): 1.43 | self-aminoacylation (biotinyl-Leu-oxazolone): 1.12 | self-aminoacylation (biotinyl-Val-oxazolone): 1.28 | self-aminoacylation (biotinyl-Phe-oxazolone): 1.5 | self-aminoacylation (biotinyl-Ile-oxazolone): 1.57 | self-aminoacylation (biotinyl-Trp-oxazolone): 1.71

AAUUUUGCUAAUAGUAGCAAG [Fam3.1 aminoacylation ribozyme variant]
self-aminoacylation (biotinyl-Met-oxazolone): 1.31 | self-aminoacylation (biotinyl-Leu-oxazolone): 1.75 | self-aminoacylation (biotinyl-Val-oxazolone): 1.37 | self-aminoacylation (biotinyl-Phe-oxazolone): 1.11 | self-aminoacylation (biotinyl-Ile-oxazolone): 1.41 | self-aminoacylation (biotinyl-Trp-oxazolone): 0.996

AAUUUUGCUAAUAGUCGCAAC [Fam3.1 aminoacylation ribozyme variant]
self-aminoacylation (biotinyl-Met-oxazolone): 1.41 | self-aminoacylation (biotinyl-Leu-oxazolone): 1.44 | self-aminoacylation (biotinyl-Val-oxazolone): 1.8 | self-aminoacylation (biotinyl-Phe-oxazolone): 2.23 | self-aminoacylation (biotinyl-Ile-oxazolone): 1.64 | self-aminoacylation (biotinyl-Trp-oxazolone): 1.95

AAUUUUGCUAAUAGUCGCGAG [Fam3.1 aminoacylation ribozyme variant]
self-aminoacylation (biotinyl-Met-oxazolone): 1.99 | self-aminoacylation (biotinyl-Leu-oxazolone): 1.7 | self-aminoacylation (biotinyl-Val-oxazolone): 1.51 | self-aminoacylation (biotinyl-Phe-oxazolone): 8.52 | self-aminoacylation (biotinyl-Ile-oxazolone): 2.28 | self-aminoacylation (biotinyl-Trp-oxazolone): 2.02

AAUUUUGCUAAUAGUCGUAAG [Fam3.1 aminoacylation ribozyme variant]
self-aminoacylation (biotinyl-Met-oxazolone): 1.11 | self-aminoacylation (biotinyl-Leu-oxazolone): 1.31 | self-aminoacylation (biotinyl-Val-oxazolone): 1.44 | self-aminoacylation (biotinyl-Phe-oxazolone): 10.9 | self-aminoacylation (biotinyl-Ile-oxazolone): 1.42 | self-aminoacylation (biotinyl-Trp-oxazolone): 4.02

AAUUUUGCUAAUAGUCUCAAG [Fam3.1 aminoacylation ribozyme variant]
self-aminoacylation (biotinyl-Met-oxazolone): 1.21 | self-aminoacylation (biotinyl-Leu-oxazolone): 1.19 | self-aminoacylation (biotinyl-Val-oxazolone): 1.26 | self-aminoacylation (biotinyl-Phe-oxazolone): 2.56 | self-aminoacylation (biotinyl-Ile-oxazolone): 1.38 | self-aminoacylation (biotinyl-Trp-oxazolone): 1.23

AAUUUUGCUAAUUGUCGCAAG [Fam3.1 aminoacylation ribozyme variant]
self-aminoacylation (biotinyl-Met-oxazolone): 1.92 | self-aminoacylation (biotinyl-Leu-oxazolone): 2.13 | self-aminoacylation (biotinyl-Val-oxazolone): 1.73 | self-aminoacylation (biotinyl-Phe-oxazolone): 2.61 | self-aminoacylation (biotinyl-Ile-oxazolone): 2.45 | self-aminoacylation (biotinyl-Trp-oxazolone): 2.21

AAUUUUGUUAAUAGUCGCAAG [Fam3.1 aminoacylation ribozyme variant]
self-aminoacylation (biotinyl-Met-oxazolone): 2.05 | self-aminoacylation (biotinyl-Leu-oxazolone): 1.93 | self-aminoacylation (biotinyl-Val-oxazolone): 1.72 | self-aminoacylation (biotinyl-Phe-oxazolone): 2.48 | self-aminoacylation (biotinyl-Ile-oxazolone): 2.04 | self-aminoacylation (biotinyl-Trp-oxazolone): 2.56

ACACACUUCAAGCAACCGGUC [Fam1B.1 aminoacylation ribozyme variant]
self-aminoacylation (biotinyl-Met-oxazolone): 1.51 | self-aminoacylation (biotinyl-Leu-oxazolone): 1.17 | self-aminoacylation (biotinyl-Val-oxazolone): 1.54 | self-aminoacylation (biotinyl-Phe-oxazolone): 1.43 | self-aminoacylation (biotinyl-Ile-oxazolone): 1.18 | self-aminoacylation (biotinyl-Trp-oxazolone): 1.13

ACACACUUCAAGCAAUCGGAC [Fam1B.1 aminoacylation ribozyme variant]
self-aminoacylation (biotinyl-Met-oxazolone): 0.97 | self-aminoacylation (biotinyl-Leu-oxazolone): 0.979 | self-aminoacylation (biotinyl-Val-oxazolone): 1.02 | self-aminoacylation (biotinyl-Phe-oxazolone): 1.42 | self-aminoacylation (biotinyl-Ile-oxazolone): 1.1 | self-aminoacylation (biotinyl-Trp-oxazolone): 1.43

ACACACUUCAAGCAAUCGGGC [Fam1B.1 aminoacylation ribozyme variant]
self-aminoacylation (biotinyl-Met-oxazolone): 2.81 | self-aminoacylation (biotinyl-Leu-oxazolone): 2.34 | self-aminoacylation (biotinyl-Val-oxazolone): 2.73 | self-aminoacylation (biotinyl-Phe-oxazolone): 2.02 | self-aminoacylation (biotinyl-Ile-oxazolone): 2.48 | self-aminoacylation (biotinyl-Trp-oxazolone): 3.29

ACACACUUCAAGCAAUCGUUC [Fam1B.1 aminoacylation ribozyme variant]
self-aminoacylation (biotinyl-Met-oxazolone): 0.825 | self-aminoacylation (biotinyl-Leu-oxazolone): 0.787 | self-aminoacylation (biotinyl-Val-oxazolone): 1.23 | self-aminoacylation (biotinyl-Phe-oxazolone): 1.43 | self-aminoacylation (biotinyl-Ile-oxazolone): 1.02 | self-aminoacylation (biotinyl-Trp-oxazolone): 1.21

ACACACUUCAAGCAAUCUGUC [Fam1B.1 aminoacylation ribozyme variant]
self-aminoacylation (biotinyl-Met-oxazolone): 0.567 | self-aminoacylation (biotinyl-Leu-oxazolone): 0.58 | self-aminoacylation (biotinyl-Val-oxazolone): 1.02 | self-aminoacylation (biotinyl-Phe-oxazolone): 1.39 | self-aminoacylation (biotinyl-Ile-oxazolone): 0.759 | self-aminoacylation (biotinyl-Trp-oxazolone): 0.683

ACACACUUCAAGCAAUUGGUC [Fam1B.1 aminoacylation ribozyme variant]
self-aminoacylation (biotinyl-Met-oxazolone): 1.01 | self-aminoacylation (biotinyl-Leu-oxazolone): 0.945 | self-aminoacylation (biotinyl-Val-oxazolone): 1.17 | self-aminoacylation (biotinyl-Phe-oxazolone): 1.61 | self-aminoacylation (biotinyl-Ile-oxazolone): 1.09 | self-aminoacylation (biotinyl-Trp-oxazolone): 1.29

Reference: the supplement of paper PMC9233669
